Publication PMC4804311

Experiments:
[1] = molecular target: CTD released by factor Xa from full-length proRgpB662iXa produced in P. gingivalis (Porphyromonas gingivalis W83) (UniProt P95493); assay: cross-linking; glutaraldehyde (0.01-0.1%) in PBS, 5 min at 37 °C, stopped with 100 mM Tris; protein at 1, 0.5 and 0.1 mg/ml; SDS-PAGE and Western blot
[2] = molecular target: recombinant C-terminal domain (CTD) of gingipain B (RgpB) (Porphyromonas gingivalis W83) (UniProt P95493); assay: cross-linking; data not shown: rCTD and r664i6H at 0.1 mg/ml exposed to 0.1, 0.05 and 0.01% glutaraldehyde
[3] = molecular target: recombinant C-terminal domain (CTD) of gingipain B (RgpB) (Porphyromonas gingivalis W83) (UniProt P95493); assay: cross-linking; glutaraldehyde (0.01-0.1%) in PBS, 5 min at 37 °C, stopped with 100 mM Tris; protein at 1, 0.5 and 0.1 mg/ml; SDS-PAGE and Western blot
[4] = molecular target: recombinant C-terminal domain (CTD) of gingipain B (RgpB) (Porphyromonas gingivalis W83) (UniProt P95493); assay: SEC; Superdex 75 10/300 GL, 50 mM Tris, 150 mM NaCl, 2.5 mM CaCl2, 0.02% NaN3 pH 7.5; fractions analysed by Western blot with anti-rCTD antibodies

Substance	stoichiometry N [1]	stoichiometry N [2]	stoichiometry N [3]	stoichiometry N [4]
CTD released by factor Xa from full-length proRgpB662iXa produced in P. gingivalis (from UniProt P95493 663-736) (domain or fragment)	2			
recombinant C-terminal domain (CTD) of gingipain B (RgpB) (from UniProt P95493 664-736) (domain or fragment)		2	2	2
